B1: NLV3 TCR beta chain (CDR3β only) (parent)
chain: ASSPTGGSPSPLH
partner: NLCPMVATV

Variants of: B1
Test: T-Switch: Jurkat TCRβ−/− cells expressing a CDR3 saturation-mutagenesis library, stained with two peptide-HLA-A*02:01 tetramers (original and novel peptide) plus anti-CD3, FACS-sorted into four gates, gDNA sequenced
Conditions: with HLA-A*02:01 with peptide … (NLV 2-1, the novel peptide), tetramers 1 µg/mL, 30 min on ice, SP, DP and SW gates expanded about 10 days between rounds ('two to three rounds of selection' in the Methods), gate SW: higher = more of the variant in the gate that binds the novel peptide and not the original one = switched binding. Fold enrichment of the CDR3 variant in one FACS gate of a two-tetramer stain, unresolved parent, parent is a CDR3 fragment, scale: fold enrichment, numbering: sequential-on-construct, sequence starts at 1
With […] (CDR3 as printed); A1W derived by comparing it with the table's wild-type CDR3 ASSPTGGSPSPLH the enrichment was 0.
Work on […] (CDR3 as printed); H13E derived by comparing it with the table's wild-type CDR3 ASSPTGGSPSPLH yielded an enrichment of 0.
With […] (CDR3 as printed); L12Y derived by comparing it with the table's wild-type CDR3 ASSPTGGSPSPLH the enrichment was 0.
For […] (CDR3 as printed); G6F derived by comparing it with the table's wild-type CDR3 ASSPTGGSPSPLH, the enrichment was 0.
[…] (CDR3 as printed); P11D derived by comparing it with the table's wild-type CDR3 ASSPTGGSPSPLH showed an enrichment of 0.
With […] (CDR3 as printed); S8L derived by comparing it with the table's wild-type CDR3 ASSPTGGSPSPLH the enrichment was 0.
In the case of […] (CDR3 as printed); S10W derived by comparing it with the table's wild-type CDR3 ASSPTGGSPSPLH, the enrichment is reported as 0.
For […] (CDR3 as printed); P9F derived by comparing it with the table's wild-type CDR3 ASSPTGGSPSPLH, the enrichment was 0.
[…] (CDR3 as printed); S3I derived by comparing it with the table's wild-type CDR3 ASSPTGGSPSPLH gave an enrichment of 0.
[…] (CDR3 as printed); G7E derived by comparing it with the table's wild-type CDR3 ASSPTGGSPSPLH was tested, and the enrichment was 0.
[…] (CDR3 as printed); G6M derived by comparing it with the table's wild-type CDR3 ASSPTGGSPSPLH gave an enrichment of 0.
With […] (CDR3 as printed); S8D derived by comparing it with the table's wild-type CDR3 ASSPTGGSPSPLH the enrichment was 0.
[…] (CDR3 as printed); H13T derived by comparing it with the table's wild-type CDR3 ASSPTGGSPSPLH gave an enrichment of 0.
[…] (CDR3 as printed); H13W derived by comparing it with the table's wild-type CDR3 ASSPTGGSPSPLH showed an enrichment of 0.
Variant […] (CDR3 as printed); A1E derived by comparing it with the table's wild-type CDR3 ASSPTGGSPSPLH has an enrichment of 0.
With […] (CDR3 as printed); S2H derived by comparing it with the table's wild-type CDR3 ASSPTGGSPSPLH the enrichment was 0.
With […] (CDR3 as printed); L12C derived by comparing it with the table's wild-type CDR3 ASSPTGGSPSPLH the enrichment was 0.
[…] (CDR3 as printed); T5H derived by comparing it with the table's wild-type CDR3 ASSPTGGSPSPLH gave an enrichment of 0.
With […] (CDR3 as printed); P9R derived by comparing it with the table's wild-type CDR3 ASSPTGGSPSPLH the enrichment was 0.
Variant […] (CDR3 as printed); S8K derived by comparing it with the table's wild-type CDR3 ASSPTGGSPSPLH has an enrichment of 0.
For […] (CDR3 as printed); G7A derived by comparing it with the table's wild-type CDR3 ASSPTGGSPSPLH, the enrichment was 0.
[…] (CDR3 as printed); S8V derived by comparing it with the table's wild-type CDR3 ASSPTGGSPSPLH gave an enrichment of 0.
[…] (CDR3 as printed); S2A derived by comparing it with the table's wild-type CDR3 ASSPTGGSPSPLH was tested, and the enrichment was 0.
With […] (CDR3 as printed); L12P derived by comparing it with the table's wild-type CDR3 ASSPTGGSPSPLH the enrichment was 0.
Variant […] (CDR3 as printed); S10F derived by comparing it with the table's wild-type CDR3 ASSPTGGSPSPLH has an enrichment of 0.
In the case of […] (CDR3 as printed); H13I derived by comparing it with the table's wild-type CDR3 ASSPTGGSPSPLH, the enrichment is reported as 0.
[…] (CDR3 as printed); S2Y derived by comparing it with the table's wild-type CDR3 ASSPTGGSPSPLH gave an enrichment of 0.
With […] (CDR3 as printed); S8C derived by comparing it with the table's wild-type CDR3 ASSPTGGSPSPLH the enrichment was 0.
Variant […] (CDR3 as printed); P9V derived by comparing it with the table's wild-type CDR3 ASSPTGGSPSPLH has an enrichment of 0.
In the case of […] (CDR3 as printed); S2P derived by comparing it with the table's wild-type CDR3 ASSPTGGSPSPLH, the enrichment is reported as 0.
With […] (CDR3 as printed); S8Y derived by comparing it with the table's wild-type CDR3 ASSPTGGSPSPLH the enrichment was 0.
[…] (CDR3 as printed); G7D derived by comparing it with the table's wild-type CDR3 ASSPTGGSPSPLH was tested, and the enrichment was 0.
In the case of […] (CDR3 as printed); G7R derived by comparing it with the table's wild-type CDR3 ASSPTGGSPSPLH, the enrichment is reported as 0.
With […] (CDR3 as printed); S3G derived by comparing it with the table's wild-type CDR3 ASSPTGGSPSPLH the enrichment was 0.
[…] (CDR3 as printed); G7T derived by comparing it with the table's wild-type CDR3 ASSPTGGSPSPLH showed an enrichment of 0.
[…] (CDR3 as printed); L12I derived by comparing it with the table's wild-type CDR3 ASSPTGGSPSPLH was tested, and the enrichment was 0.
With […] (CDR3 as printed); T5G derived by comparing it with the table's wild-type CDR3 ASSPTGGSPSPLH the enrichment was 0.
[…] (CDR3 as printed); P11L derived by comparing it with the table's wild-type CDR3 ASSPTGGSPSPLH gave an enrichment of 0.
[…] (CDR3 as printed); S3F derived by comparing it with the table's wild-type CDR3 ASSPTGGSPSPLH was tested, and the enrichment was 0.
[…] (CDR3 as printed); P11M derived by comparing it with the table's wild-type CDR3 ASSPTGGSPSPLH gave an enrichment of 0.
Variant […] (CDR3 as printed); P11H derived by comparing it with the table's wild-type CDR3 ASSPTGGSPSPLH has an enrichment of 0.
For […] (CDR3 as printed); A1L derived by comparing it with the table's wild-type CDR3 ASSPTGGSPSPLH, the enrichment was 0.
With […] (CDR3 as printed); G7M derived by comparing it with the table's wild-type CDR3 ASSPTGGSPSPLH the enrichment was 0.

From article PMC13397619
